Here are results for two molecules from patent US11623960 (dated 2023).

Holding throughout (assay): SPR
One assay addresses T1, VEGFR3 (Flt-4) IgD4-7 (human, UniProt P35916).
T1 chain: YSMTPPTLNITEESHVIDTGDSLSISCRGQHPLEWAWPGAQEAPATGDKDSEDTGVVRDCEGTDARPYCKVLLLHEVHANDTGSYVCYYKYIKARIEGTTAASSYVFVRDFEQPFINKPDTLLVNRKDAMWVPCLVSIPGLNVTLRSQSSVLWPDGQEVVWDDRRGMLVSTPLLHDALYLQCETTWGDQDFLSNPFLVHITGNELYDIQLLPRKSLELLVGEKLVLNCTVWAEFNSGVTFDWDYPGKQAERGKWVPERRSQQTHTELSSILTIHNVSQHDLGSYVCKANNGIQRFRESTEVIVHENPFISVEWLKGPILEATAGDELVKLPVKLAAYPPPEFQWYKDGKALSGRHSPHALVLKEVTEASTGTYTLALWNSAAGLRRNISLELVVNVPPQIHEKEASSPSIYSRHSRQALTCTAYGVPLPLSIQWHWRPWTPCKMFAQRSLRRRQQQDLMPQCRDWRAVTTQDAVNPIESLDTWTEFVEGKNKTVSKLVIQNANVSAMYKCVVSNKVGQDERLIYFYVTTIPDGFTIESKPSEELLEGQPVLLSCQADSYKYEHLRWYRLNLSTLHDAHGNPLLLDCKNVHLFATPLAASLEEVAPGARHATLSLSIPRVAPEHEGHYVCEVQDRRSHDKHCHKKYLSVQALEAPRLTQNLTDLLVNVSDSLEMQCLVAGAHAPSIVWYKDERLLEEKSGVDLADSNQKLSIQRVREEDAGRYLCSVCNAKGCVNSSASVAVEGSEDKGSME

In a further assay the target is T2, VEGFR2 (KDR) IgD4-7 (human, UniProt P35968).
T2 chain: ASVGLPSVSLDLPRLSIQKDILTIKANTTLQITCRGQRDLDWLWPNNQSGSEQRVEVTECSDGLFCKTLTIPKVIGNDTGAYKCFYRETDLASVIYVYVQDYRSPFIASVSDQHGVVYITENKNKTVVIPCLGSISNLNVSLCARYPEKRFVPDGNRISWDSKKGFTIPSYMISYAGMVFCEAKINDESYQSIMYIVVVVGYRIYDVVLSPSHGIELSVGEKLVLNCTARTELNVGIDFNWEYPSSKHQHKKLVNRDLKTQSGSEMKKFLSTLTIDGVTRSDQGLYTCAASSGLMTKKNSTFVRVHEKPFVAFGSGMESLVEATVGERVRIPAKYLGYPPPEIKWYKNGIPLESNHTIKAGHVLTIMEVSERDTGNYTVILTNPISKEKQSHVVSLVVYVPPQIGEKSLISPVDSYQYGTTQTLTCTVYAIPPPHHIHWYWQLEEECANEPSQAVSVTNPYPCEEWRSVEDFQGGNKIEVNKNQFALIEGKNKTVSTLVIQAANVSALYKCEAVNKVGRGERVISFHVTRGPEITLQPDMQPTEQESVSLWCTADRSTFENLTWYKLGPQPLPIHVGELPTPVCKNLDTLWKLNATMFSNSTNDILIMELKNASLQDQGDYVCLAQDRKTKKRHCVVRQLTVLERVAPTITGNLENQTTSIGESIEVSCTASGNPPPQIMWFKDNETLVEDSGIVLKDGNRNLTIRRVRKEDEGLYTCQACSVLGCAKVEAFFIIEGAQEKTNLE

The next assay addresses T3, VEGFR2 (KDR) IgD6-7 (human, UniProt P35968).
T3 chain: T2 chain

The target in another assay is T4, VEGFR3 (Flt-4) IgD6-7 (human, UniProt P35916).
T4 chain: T1 chain

B1: R2C9-11 (antibody, V domains shown)
VH: QVQLQQPGAELVKPGASVKLSCKASGYTFTSYWMHWVKQRPGQGLEWIGEINPSNGRTNYNEKFKSKATLTVDKSSSTAYMQLSSLTSEDSAVYYCANLYFDVWGAGTTVTVSS
VL: DIVMTQSPSSLSVSAGEKVTMSCKSSQNLLNSGNQKYYLAWYQQKPGQPPKLLIYGASIRESGVPDRFIGSGSGTDFTLTISSVQAEDLAVYFCQSDHSYPYTFGGGTKLEIK
Regarding B1, the Kd in the assay with VEGFR3 (Flt-4) IgD4-7 worked out at 1.1 nM; with VEGFR2 (KDR) IgD4-7, 0.46 nM; in the assay with VEGFR2 (KDR) IgD6-7, 1.5 nM; in the assay with VEGFR3 (Flt-4) IgD6-7 it was 4.8 nM.

B2: R2C7-1 (antibody, V domains shown)
VH: EVQLQQSGPELVKPGASVKISCKASGYSFTDYFINWVIQRHGKSLEWVGRINPYNGGSFYNQKFKDKATLTVDKSSNIAHMELRSLASEDSAIYYCARSGGNGYDYWGQGTTLTVSS
VL: DIVMTQAAPSVPVIPGESVSISCRSSKSLLHSNGNTYLYWFLQRPGQSPQLLIYRMSNLASGVPDRFSGSGSGTAFTLRISRVEAEDVGVYYCMQHLEYPYTFGGGTKVEIK
With B2, the Kd was determined as 3.3 nM with VEGFR3 (Flt-4) IgD4-7, 2.18 nM with VEGFR2 (KDR) IgD4-7, 1.13 nM with VEGFR2 (KDR) IgD6-7 and 13 nM in the assay with VEGFR3 (Flt-4) IgD6-7.
